From the Human Domainome abundance scans (Beltran et al. 2025)
± gives the uncertainty stated by the source.

B1: Protein piccolo, residues 1058 to 1114; numbered along this chain, Q9Y6V0 (parent)
chain: TCPLCKTELNIGSKDPPNFNTCTECKNQVCNLCGFNPTPHLTEIQEWLCLNCQTQRA

Variants of: B1
Assay: abundance fitness (aPCA) (normalised: wild type 0, dead -1); higher = more abundant; growth selection in yeast, the domain comes from the species named
Conditions: Homo sapiens

Variant	abundance fitness
K26R	0.072 ± 0.11
K26S	0.119 ± 0.1
K26E	0.045 ± 0.31
K26Q	0.04 ± 0.14
K26I	0.006 ± 0.18
K26Y	0.148 ± 0.16
E43G	0.003 ± 0.11
E43D	-0.096 ± 0.19
E43H	-0.671 ± 0.36
E43K	-0.003 ± 0.27
E43N	-0.123 ± 0.38
E43Q	-0.167 ± 0.18
E43W	-0.09 ± 0.33
E43V	-0.202 ± 0.11
E43R	0.11 ± 0.13
N31Y	0.011 ± 0.16
N31V	0.045 ± 0.1
N31I	-0.121 ± 0.16
N31D	0.003 ± 0.26
N31K	0.12 ± 0.16
N31M	-0.147 ± 0.15
N31R	0.012 ± 0.088
N31E	0.148 ± 0.15
L9W	-0.419 ± 0.092

Variant	abundance fitness
L9P	-0.197 ± 0.096
L9V	-0.056 ± 0.077
L9H	-0.231 ± 0.15
P3W	-0.984 ± 0.14
P3A	-0.245 ± 0.11
P3L	-0.282 ± 0.092
P3C	0.148 ± 0.14
P3S	-0.078 ± 0.097
N36D	-0.093 ± 0.16
N36A	-0.097 ± 0.097
N36K	0.08 ± 0.14
N36V	0.068 ± 0.09
N36F	0.044 ± 0.14
N36S	-0.12 ± 0.095
N36W	-0.08 ± 0.11
N36T	-0.28 ± 0.14
N36G	0.038 ± 0.087
T42I	-0.105 ± 0.18
T42K	-0.056 ± 0.18
T42P	-0.137 ± 0.13
T42S	-0.011 ± 0.11
T42E	-0.122 ± 0.16
T42Q	0.062 ± 0.16
T42A	0.055 ± 0.11

Variant	abundance fitness
T42L	-0.091 ± 0.088
T21E	0.036 ± 0.12
T21L	-0.098 ± 0.089
T21M	0.298 ± 0.14
T21V	0.091 ± 0.092
T21P	-0.169 ± 0.14
T21F	-0.109 ± 0.16
T21C	0.032 ± 0.13
T21D	-0.078 ± 0.19
C2N	-0.156 ± 0.18
C2K	-0.831 ± 0.26
C2P	-1.1 ± 0.19
C2M	-0.983 ± 0.27
C2T	-0.705 ± 0.16
C2H	-0.834 ± 0.26
C2W	-0.904 ± 0.15
C2D	-0.536 ± 0.18
L50G	0.084 ± 0.092
L50I	-0.173 ± 0.23
L50M	-0.565 ± 0.31
L50H	0.145 ± 0.16
L50W	-0.215 ± 0.12
L50A	0.129 ± 0.12
Q45N	0.016 ± 0.29

Variant	abundance fitness
Q45V	0.046 ± 0.14
Q45P	-0.141 ± 0.18
Q45F	-0.127 ± 0.17
Q45L	-0.093 ± 0.1
Q45M	-0.015 ± 0.19
F35N	0.066 ± 0.15
F35W	-0.288 ± 0.11
F35L	0.175 ± 0.08
F35A	0.139 ± 0.1
F35T	0.298 ± 0.14
F35Q	0.25 ± 0.15
G12A	-0.361 ± 0.095
G12V	-0.405 ± 0.084
G12Q	-0.3 ± 0.18
G12N	-0.611 ± 0.32
G12F	-0.203 ± 0.21
G12D	0.357 ± 0.17
G12R	-0.05 ± 0.08
G12L	-0.039 ± 0.082
G12K	-0.216 ± 0.16
N51D	-0.166 ± 0.24
N51A	-0.015 ± 0.16
N51S	-0.247 ± 0.12
N51I	-0.566 ± 0.2

Variant	abundance fitness
N51F	-0.306 ± 0.12
N51E	-0.099 ± 0.21
L32A	0.124 ± 0.1
L32G	0.279 ± 0.088
L32V	0.104 ± 0.092
L32T	-0.017 ± 0.15
L32N	-0.176 ± 0.24
L32S	0.128 ± 0.093
L32P	-0.134 ± 0.14
L32H	0.073 ± 0.14
L32Y	-0.218 ± 0.17
N18D	0.008 ± 0.2
N18V	-0.348 ± 0.096
N18K	-0.032 ± 0.17
N18Q	-0.07 ± 0.12
E24P	-0.517 ± 0.1
E24D	0.008 ± 0.14
E24V	0.001 ± 0.086
E24Q	-0.135 ± 0.11
E24N	-0.184 ± 0.13
E24G	-0.012 ± 0.073
E24R	-0.01 ± 0.07
E24S	-0.13 ± 0.084
E24M	-0.06 ± 0.11

Variant	abundance fitness
E24K	-0.017 ± 0.12
D15C	-0.152 ± 0.13
D15P	-0.273 ± 0.16
D15Y	0.124 ± 0.17
S13Q	0.135 ± 0.12
S13H	-0.079 ± 0.21
S13T	-0.048 ± 0.11
S13N	-0.146 ± 0.18
P39W	-0.303 ± 0.11
P39Q	0.099 ± 0.13
P39L	-0.001 ± 0.084
K14R	0.042 ± 0.1
K14V	0.039 ± 0.091
K14D	0.003 ± 0.14
K14A	-0.079 ± 0.1
K14T	0.013 ± 0.12
K14H	0.056 ± 0.18
K14L	-0.644 ± 0.12
F19V	-0.211 ± 0.12
F19C	-0.347 ± 0.12
F19W	-0.083 ± 0.11
F19K	-0.737 ± 0.42
F19I	0.178 ± 0.22
T1A	-0.534 ± 0.33

Variant	abundance fitness
T1W	-0.516 ± 0.23
T1G	-0.205 ± 0.27
V29M	-0.039 ± 0.1
V29W	-0.131 ± 0.097
V29C	0.028 ± 0.084
V29E	-0.178 ± 0.12
V29F	-0.217 ± 0.075
H40I	-0.018 ± 0.18
H40L	-0.02 ± 0.088
H40V	0.051 ± 0.1
H40F	-0.105 ± 0.15
H40A	0.076 ± 0.11
H40S	0.156 ± 0.094
H40M	0.004 ± 0.13
H40Y	-0.13 ± 0.15
W47Q	-0.09 ± 0.19
W47K	-0.111 ± 0.25
W47H	-0.135 ± 0.49
W47S	-0.03 ± 0.14
W47N	-0.354 ± 0.29
W47C	-0.134 ± 0.16
W47F	-0.065 ± 0.16
C5N	-0.693 ± 0.084
C5T	-0.872 ± 0.082

Variant	abundance fitness
C5S	-0.68 ± 0.072
C5G	-0.685 ± 0.088
C5Q	-0.689 ± 0.15
C5I	-1.06 ± 0.092
T23I	-0.187 ± 0.15
T23R	-0.016 ± 0.089
T23D	0.041 ± 0.19
T23H	-0.18 ± 0.3
L41V	0.044 ± 0.091
L41C	0.004 ± 0.14
L41R	0.2 ± 0.097
L41K	0.176 ± 0.17
L41M	-0.189 ± 0.12
L41P	-0.037 ± 0.14
L41N	0.128 ± 0.2
K6I	-0.087 ± 0.13
K6T	-0.107 ± 0.097
K6H	-0.142 ± 0.15
K6V	-0.215 ± 0.074
K6E	-0.069 ± 0.093
K6Y	-0.18 ± 0.16
I44S	0.045 ± 0.13
I44G	0.02 ± 0.14
I44H	-0.166 ± 0.25

Variant	abundance fitness
I44E	0.146 ± 0.16
I44P	0.126 ± 0.19
I44C	0.026 ± 0.2
I44T	-0.273 ± 0.17
C30H	-0.17 ± 0.24
C30Q	-0.619 ± 0.15
C30E	-0.532 ± 0.16
C30N	-0.612 ± 0.18
C30V	-0.594 ± 0.099
C30G	-0.584 ± 0.1
C52E	-0.448 ± 0.16
C52H	-0.273 ± 0.17
C52N	-0.876 ± 0.36
C52W	-1.14 ± 0.32
C52M	-0.981 ± 0.23
C52S	-0.709 ± 0.13
C52Y	-0.841 ± 0.16
C52P	-1.2 ± 0.23
C52G	-0.727 ± 0.12
L4M	0.075 ± 0.1
L4E	-0.288 ± 0.14
L4T	-0.051 ± 0.15
L4A	0.087 ± 0.11
L4H	0.054 ± 0.2

Variant	abundance fitness
L4D	0.17 ± 0.13
P37D	0.247 ± 0.3
P37W	-0.012 ± 0.11
P37C	0.05 ± 0.14
P37S	0.016 ± 0.1
P37M	-0.098 ± 0.12
P37Y	-0.451 ± 0.28
N20M	0.188 ± 0.16
N20C	-0.091 ± 0.11
N20G	0.055 ± 0.083
N20L	-0.024 ± 0.085
N20A	-0.001 ± 0.1
N20F	-0.051 ± 0.13
N10W	-0.676 ± 0.1
N10E	-0.022 ± 0.11
N10H	-0.608 ± 0.16
I11Q	0.065 ± 0.12
I11M	0.039 ± 0.15
I11T	-0.099 ± 0.15
I11W	-0.333 ± 0.11
I11F	-0.063 ± 0.11
I11V	-0.046 ± 0.098
I11E	0.172 ± 0.14
I11C	-0.133 ± 0.1

Variant	abundance fitness
G34N	-0.925 ± 0.35
G34R	-0.102 ± 0.099
G34T	-1.02 ± 0.15
G34K	-0.794 ± 0.19
G34M	-0.643 ± 0.12
G34A	-0.083 ± 0.15
G34W	-0.242 ± 0.12
G34H	-0.37 ± 0.24
T7L	-0.15 ± 0.076
T7S	-0.09 ± 0.081
T7H	-0.168 ± 0.14
T7Y	-0.34 ± 0.1
T7R	-0.056 ± 0.075
P16R	-0.179 ± 0.1
P16N	-0.229 ± 0.26
P16T	-0.37 ± 0.15
P16Y	-0.056 ± 0.18
P16I	-0.173 ± 0.16
P16V	-0.483 ± 0.22
L48K	-0.245 ± 0.18
L48C	0.164 ± 0.15
L48D	-0.297 ± 0.18
L48V	-0.165 ± 0.098
L48S	-0.063 ± 0.11

Variant	abundance fitness
L48I	-0.105 ± 0.22
L48H	-0.177 ± 0.23
L48Y	-0.112 ± 0.17
C25W	-0.879 ± 0.11
C25Q	-0.644 ± 0.15
C25V	-0.636 ± 0.084
C25P	-0.577 ± 0.1
T38I	-0.143 ± 0.16
C22G	-0.69 ± 0.11
C22V	-0.733 ± 0.099
C22F	-0.958 ± 0.18
C22Q	-0.791 ± 0.17
C22L	-0.675 ± 0.11
C22M	-0.74 ± 0.2
E46T	-0.083 ± 0.19
E46K	-0.079 ± 0.17
T54I	-0.37 ± 0.18
T54C	-0.182 ± 0.24
T54Y	-0.369 ± 0.23
T54N	0.296 ± 0.32
T54F	-0.79 ± 0.16
T54W	-0.441 ± 0.15
T54Q	0.214 ± 0.13
E8L	-0.252 ± 0.071

Variant	abundance fitness
E8F	-0.431 ± 0.097
E8N	-0.488 ± 0.15
E8I	-0.153 ± 0.11
E8W	-0.517 ± 0.084
E8R	-0.206 ± 0.071
E8Y	-0.679 ± 0.14
N27P	-0.317 ± 0.14
N27M	-0.088 ± 0.16
N27W	0.174 ± 0.11
N27S	0.12 ± 0.12
N27Y	-0.452 ± 0.18
N27L	0.157 ± 0.088
C33H	0.076 ± 0.13
C33K	-0.822 ± 0.18
C33P	-0.795 ± 0.14
C33A	-0.588 ± 0.12
C33W	-1.01 ± 0.12
C33Y	-1.26 ± 0.17
C33V	-0.743 ± 0.12
Q53N	0.118 ± 0.39
Q53E	-0.074 ± 0.18
Q53C	-0.464 ± 0.15
Q53R	0.099 ± 0.1
P17M	-0.491 ± 0.23

Variant	abundance fitness
P17T	-0.464 ± 0.16
P17N	-0.189 ± 0.18
P17V	-0.428 ± 0.088
P17G	-0.097 ± 0.087
P17A	-0.176 ± 0.1
P17F	-0.245 ± 0.12
P17E	0.137 ± 0.15
P17W	-0.199 ± 0.18
Q28L	-0.078 ± 0.091
Q28S	0.007 ± 0.095
Q28D	-0.398 ± 0.26
Q28H	-0.206 ± 0.16
Q28T	-0.015 ± 0.13
Q28V	-0.033 ± 0.1
C49L	-1 ± 0.14
C49T	-1.06 ± 0.26
C49I	-1.05 ± 0.28
C49H	-0.761 ± 0.18
C49A	-0.66 ± 0.13
C49Y	-0.958 ± 0.17
C49F	-0.793 ± 0.24
C49P	-0.418 ± 0.14
